Source: doi:10.1101/2025.05.04.652084

Experiments:
[1] = molecular target: taxol-stabilized porcine brain GDP-microtubules (porcine) (UniProt P02550)
[2] = molecular target: taxol-stabilized porcine brain GDP-microtubules (porcine) (UniProt P02550); remark: listed apart in the source

UniProt P02550, sequence (P02550 46-451): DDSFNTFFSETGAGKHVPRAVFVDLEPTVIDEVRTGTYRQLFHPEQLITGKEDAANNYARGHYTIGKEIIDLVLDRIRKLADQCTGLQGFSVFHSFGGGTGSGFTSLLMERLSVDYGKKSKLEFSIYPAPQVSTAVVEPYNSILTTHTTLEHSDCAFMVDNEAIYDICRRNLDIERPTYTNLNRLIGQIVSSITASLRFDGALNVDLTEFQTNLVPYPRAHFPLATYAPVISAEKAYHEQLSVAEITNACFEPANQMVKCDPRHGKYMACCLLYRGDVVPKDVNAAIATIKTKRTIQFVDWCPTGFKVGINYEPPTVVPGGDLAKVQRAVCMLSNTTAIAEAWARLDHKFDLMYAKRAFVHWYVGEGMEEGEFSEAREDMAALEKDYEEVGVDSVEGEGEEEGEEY

Substance	K (1/2,MT) of the microtubule-stimulated ATPase activity [1] [µM]	microtubule detachment rate under load [2] [s⁻¹]
GcKIF5A (enzyme)	4.2	3.9
MmKIF5A (from UniProt P33175 1-1027) (enzyme)	2.2	1.3
